{
  "source": "paper PMC5014086",
  "about": "(2016)",
  "binders": {"B1": {"name": "LRP6_(PE1PE2) fragment (domain or fragment)", "chain": "APLLLYANRRDLRLVDATNGKENATIVVGGLEDAAAVDFVFSHGLIYWSDVSEEAIKRTEFNKTESVQNVVVSGLLSPDGLACDWLGEKLYWTDSETNRIEVSNLDGSLRKVLFWQELDQPRAIALDPSSGFMYWTDWGEVPKIERAGMDGSSRFIIINSEIYWPNGLTLDYEEQKLYWADAKLNFIHKSNLDGTNRQAVVKGSLPHPFALTLFEDILYWTDWSTHSILACNKYTGEGLREIHSDIFSPMDIHAFSQQRQPNATNPCGIDNGGCSHLCLMSPVKPFYQCACPTGVKLLENGKTCKDGATELLLLARRTDLRRISLDTPDFTDIVLQLEDIRHAIAIDYDPVEGYIYWTDDEVRAIRRSFIDGSGSQFVVTAQIAHPDGIAVDWVARNLYWTDTGTDRIEVTRLNGTMRKILISEDLEEPRAIVLDPMVGYMYWTDWGEIPKIERAALDGSDRVVLVNTSLGWPNGLALDYDEGKIYWGDAKTDKIEVMNTDGTGRRVLVEDKIPHIFGFTLLGDYVYWTDWQRRSIERVHKRSAEREVIIDQLPDLMGLKATNVHRVIGSNPCAEENGGCSHLCLYRPQGLRCACPIGFELISDMKTCI"}, "B2": {"name": "wild-type KRM1ECD as immobilised for SPR, Q96MU8 A311S (protein)", "chain": "ETGAPSPGLGPGPECFTANGADYRGTQNWTALQGGKPCLFWNETFQHPYNTLKYPNGEGGLGEHNYCRNPDGDVSPWCYVAEHEDGVYWKYCEIPACQMPGNLGCYKDHGNPPPLTGTSKTSNKLTIQTCISFCRSQRFKFAGMESGYACFCGNNPDYWKYGEAASTECNSVCFGDHTQPCGGDGRIILFDTLVGACGGNYSAMSSVVYSPDFPDTYATGRVCYWTIRVPGASHIHFSFPLFDIRDSADMVELLDGYTHRVLARFHGRSRPPLSFNVSLDFVILYFFSDRINQSQGFAVLYQAVKEEGSENLYFQGGSLPQERPAVNQTVAEVITEQANLSVSAARSSKVLYVITTSPSHPPQTVPG"}, "B3": {"name": "SUMO-DKK1_(Linker-CRD2), SUMO fusion as SPR analyte (domain or fragment)", "chain": "SDQNHFRGEIEETITESFGNDHSTLDGYSRRTTLSSKMYHTKGQEGSVCLRSSDCASGLCCARHFWSKICKPVLKEGQVCTKHRRKGSHGLEIFQRCYCGEGLSCRIQKDHHQASNSSRLHTCQRH"}, "B4": {"name": "full-length DKK1 (ligand)", "chain": "TLNSVLNSNAIKNLPPPLGGAAGHPGSAVSAAPGILYPGGNKYQTIDNYQPYPCAEDEECGTDEYCASPTRGGDAGVQICLACRKRRKRCMRHAMCCPGNYCKNGICVSSDQNHFRGEIEETITESFGNDHSTLDGYSRRTTLSSKMYHTKGQEGSVCLRSSDCASGLCCARHFWSKICKPVLKEGQVCTKHRRKGSHGLEIFQRCYCGEGLSCRIQKDHHQASNSSRLHTCQRH"}},
  "assay_in_all_cases": "SPR",
  "key": {"[1]": {"biological_target": "T1, wild-type KRM1ECD as immobilised for SPR (human, UniProt Q96MU8 21-392)", "T1 chain": "B2 chain with S294A"}, "LRP6_(PE1PE2) fragment": {"biological_target": "T2, LRP6_(PE1PE2) fragment", "T2 chain": "B1 chain", "settings": "chain shown with the change; 25 µM LRP6PE1PE2 (highest concentration of the titration); parent: est. 100; read off a plot"}, "[2]": {"biological_target": "T1, wild-type KRM1ECD as immobilised for SPR"}, "[3]": {"biological_target": "T3, GlycoCUB mutant of KRM1ECD (309NQA311→NQS, N-glycan at N309) (human, UniProt Q96MU8 21-392, 309NQA311→NQS, additional N-glycan at N309)", "T3 sequence": "B2 chain"}},
  "note": "Positions count from the first letter of the chain named. Names may count otherwise. Where two headings read alike, the source gives them in different places.",
  "data": [
    {"binder": "B1", "values": [
      {"measurement": "Kd", "setting": "[1]", "result": 18.9, "unit": "µM"}
    ]},
    {"binder": "B2", "values": [
      {"measurement": "response (response units)", "setting": "LRP6_(PE1PE2) fragment", "result": -20}
    ]},
    {"binder": "B3", "values": [
      {"measurement": "Kd", "setting": "[2]", "result": 0.4, "unit": "µM"}
    ]},
    {"binder": "B4", "values": [
      {"measurement": "Kd", "setting": "[2]", "result": 1.2, "unit": "µM"},
      {"measurement": "Kd", "setting": "[3]", "result": 1.3, "unit": "µM"}
    ]}
  ]
}
